Assay results from US8748182B2, “Mutant proteins and methods for producing them” (Heptares Therapeutics Limited, priority 2007, dated 2014).
Where “and” joins values, the source holds several entries; their conditions need not be identical. Equal entries are not always repeated. Structures can show the parent of a compound that is named as a salt. Where two headings read alike, the source gives them in different places.

Key:
[1] = molecular target: T1, βAR-m23 (Meleagris gallopavo, UniProt P07700, A282L/C116L/F327A/F338M/M90V/R68S/Y227A); assay type: binding, turkey
[2] = molecular target: T1, βAR-m23; test: biochemical; assay type: binding, turkey
[3] = Stability of βAR-m23 and βAR34-424 in different detergents (Ni-NTA partially purified); assay type: physicochemical
Procedure: FIGS. 6A-6C Stability of βAR-m23 and βAR34-424 in five different detergents. […] Assays were carried out as described in the Methods and the Tm is shown at the intersection between the curves and the discontinuous line. Results are from duplicate measurements in a representative experiment performed in parallel.
Membranes prepared from E. coli expressing βAR-m23 or βAR34-424 were solubilised in DDM, bound to Ni-NTA agarose then washed with either DDM, decylmaltoside (DM), octylglucoside (OG), lauryldimethylamine oxide (LDAO) or nonylglucoside (NG). […] In contrast, functional βAR-m23 was still present in all detergents and the Tm could be determined. As expected, the smaller detergents were considerably more denaturing than either DDM (Tm 52° C.) or DM (Tm 48° C.), with Tms of 25° C. (NG), 23° C. (LDAO) and 17° C. (OG). The difference in Tm between βAR-m23 and βAR34-424 is about 20° C., irrespective of whether the receptors were solubilised in either DDM or DM; […] . The selection strategy used for the generation of βAR-m23 was chosen deliberately to be based upon thermostability, because it is far simpler to apply than selecting for stability in detergents of increasing harshness.
Receptors were eluted in 2×100 μl of buffer (0.4 M NaCl, 1 mM EDTA, 250 mM imidazole pH 8, plus the relevant detergent). […] .
Single point binding assays contained 20 mM Tris pH 8, 0.4 M NaCl, 1 mM EDTA, 0.1% DDM (or corresponding detergent) with 50 nM [^3H]-DHA and 20-100 μg membrane protein in a final volume of 120 μl; equilibration was for 1 h at 4° C. Thermostability was assessed by incubating the binding assay mix, with or without [^3H]-DHA at the specified temperature for 30 minutes; reactions were placed on ice and [^3H]-DHA added as necessary and equilibrated for a further hour. Receptor-bound and free radioligand were separated by gel filtration as described previously. Non-specific binding was determined in the presence of 1 μM of s-propranolol. […] Radioactivity was counted on a Beckman LS6000 liquid scintillation counter and data were analyzed by nonlinear regression using Prism software (GraphPad).

[4] = Thermostability assay of detergent-solubilised βAR34-424 and mutants expressed in E. coli ([3H]-DHA binding after heating 30 min)
Procedure: To determine Tm in the absence of ligand (apo-state, discontinuous lines), detergent-solubilised receptors were incubated for 30 minutes at the temperatures indicated before carrying out the binding assay. […] Data points are from duplicates measurements in a representative experiment.
Binding assays were performed using [^3H]-dihydroalprenolol (DHA) as radioligand as described under “Methods”. Samples were heated for 30 minutes at different temperatures before the assay. […] Data points are from duplicates of one single experiment. This experiment has been repeated several times with similar results.
Expression of βAR and the mutants was performed in XL10 cells (Stratagene). Cultures of 50 ml of 2×TY medium containing ampicillin (100 μg/ml) were grown at 37° C. with shaking until OD600=3 and then induced with 0.4 mM IPTG. Induced cultures were incubated at 25° C. for 4 h and then cells were harvested by centrifugation at 13,000×g for 1 min (aliquots of 2 ml) and stored at −20° C. For the assays, cells were broken by freeze-thaw (five cycles), resuspended in 500 μl of buffer [20 mM Tris pH 8, 0.4 M NaCl, 1 mM EDTA and protease inhibitors (Complete™, Roche)]. After an incubation for 1 h at 4° C. with 100 μg/ml lysozyme and DNase I (Sigma), samples were solubilized with 2% DDM on ice for 30 minutes. Insoluble material was removed by centrifugation (15,000×g, 2 min, 4° C.) and the supernatant was used directly in radioligand binding assays.
Single point binding assays contained 20 mM Tris pH 8, 0.4 M NaCl, 1 mM EDTA, 0.1% DDM (or corresponding detergent) with 50 nM [^3H]-DHA and 20-100 μg membrane protein in a final volume of 120 μl; equilibration was for 1 h at 4° C. Thermostability was assessed by incubating the binding assay mix, with or without [^3H]-DHA at the specified temperature for 30 minutes; reactions were placed on ice and [^3H]-DHA added as necessary and equilibrated for a further hour. […] Radioactivity was counted on a Beckman LS6000 liquid scintillation counter and data were analyzed by nonlinear regression using Prism software (GraphPad).

[5] = Thermostability of solubilised adenosine A2a receptor and mutants (radioligand binding after or during heating); assay type: physicochemical
Text: FIG. 12 Flow chart showing the two different assay formats of ligand (+) and ligand (−) used to determine receptor thermostablity.
• 1. 315 site-directed mutants made between residues 2-316 of A2aR. • 2. All of these mutants have been assayed for thermostability using an assay measuring agonist and antagonist binding after the heating step (Ligand(−) format as described in FIG. 12). • a. […] Mutations have been combined to generate mutants in a putative antagonist conformation. Wildtype A2aR has a Tm of 31° C. with ZM241385 bound. • a. Rant17 A54L+K122A+L235A Tm 48° C. (ZM241385 bound) • b. Rant19 A54L,T88A,V239A+A204L Tm 47° C. (ZM241385 bound) • c. Rant21 A54L,T88A,V239A+K122A Tm 49° C. (ZM241385 bound) • 4. Mutations from the agonist screen have been combined, but have led to only a very low level of improvement in Tm of +2° C.

[6] = Stability of wild-type and mutant A2aR in different detergents; assay type: physicochemical
[7] = [3H]-DHA bound during the heating step
[8] = 1% DDM (no glycerol), apo-state, S.D. <1° C.
[9] = 1% DDM (no glycerol), ligand-occupied state, S.D. <1° C.
[10] = 0.3% NG, † = receptor too unstable to determine the Tm
[11] = 0.6% OG, † = receptor too unstable to determine the Tm

T1 sequence (P07700 34-424 R68S/M90V/C116L/Y227A/A282L/F327A/F338M): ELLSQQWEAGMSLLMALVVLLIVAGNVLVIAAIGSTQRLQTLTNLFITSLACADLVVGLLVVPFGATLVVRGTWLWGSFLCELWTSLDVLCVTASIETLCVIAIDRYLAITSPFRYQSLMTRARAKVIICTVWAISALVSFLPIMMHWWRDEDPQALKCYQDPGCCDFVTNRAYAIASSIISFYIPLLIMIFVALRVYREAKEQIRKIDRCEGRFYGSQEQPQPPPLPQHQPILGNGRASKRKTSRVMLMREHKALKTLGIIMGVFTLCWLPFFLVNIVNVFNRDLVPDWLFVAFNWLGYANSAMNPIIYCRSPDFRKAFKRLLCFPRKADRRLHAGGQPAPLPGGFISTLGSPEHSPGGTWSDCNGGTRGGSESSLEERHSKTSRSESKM

Q: With “1-[4,6-propyl-^3H]-dihydroalprenolol [[^3H]-dihydroalprenolol]” as the molecule, how does the Kd ([1]; membranes, n=2, read-out: KD of [3H]-dihydroalprenolol) read?
A: 6.5 ± 0.2 nM

Q: And the Kd ([1]; semipurified receptor, read-out: KD for [3H]-DHA binding)?
A: 12.5 nM

Q: For `C=CCc1ccccc1OC[C@@H](O)CNC(C)C` [alprenolol, (−) alprenolol tartrate salt], which EC50 [2] is on record?
A: 112 nM

Q: With “m23: βAR34-424 with R68S, M90V, Y227A, A282L, F327A, F338M” as the molecule, how does the “Tm in DDM” value ([3]; DDM) read?
A: 52 °C

Q: And the “Tm in DM” value ([3]; DM (decylmaltoside))?
A: 48 °C

Q: And the “Tm in LDAO” value ([3]; LDAO)?
A: 23 °C

Q: And the “Tm in NG” value ([3]; NG (nonylglucoside))?
A: 25 °C

Q: And the “Tm in OG” value ([3]; OG (octylglucoside))?
A: 17 °C

Q: And the “difference in Tm between βAR-m23 and βAR34-424” value ([3]; solubilised in either DDM or DM)?
A: about 20 °C

Q: And the “increase in Tm compared to βAR34-424 (native protein)” value ([4]; DDM-solubilised, heated without ligand)?
A: 21 °C

Q: What about the “Tm (° C.)” value ([4]; Table 2, heated 30 min without ligand, then [3H]-DHA binding, DDM-solubilised, E. coli, mean ± S.E. from duplicates) of the same molecule?
A: 52.8 °C and 52.8 ± 1.4 °C

Q: What about the “Tm with antagonist bound” value [4, 7] of the same molecule?
A: 55 °C

Q: What about the “increase in Tm with bound antagonist versus without antagonist” value [4, 7] of the same molecule?
A: 2 °C

Q: What about the “further increase in Tm on adding one mutation to the preceding mutant” value ([4]; m4-1 to m4-7 to m4-2, m18 to m23) of the same molecule?
A: 3 °C

Q: Which results are given for “wt: wild-type human adenosine A2a receptor (A2aR)”?
A: Tm (° C.) − agonist [5, 8]: 21 °C; Tm (° C.) − antagonist [5, 8]: 31 °C; Tm (° C.) + agonist [5, 9]: 29 °C; Tm (° C.) + antagonist [5, 9]: 32 °C; Tm (ZM241385 bound) [5]: 31 °C; Tm (° C.) Agonist-binding ([6]; 0.003% LDAO): 28 °C; Tm (° C.) Antagonist-binding ([6]; 0.003% LDAO): 32 °C; Tm (° C.) Agonist-binding ([6]; 0.006% FC12): 37 °C; Tm (° C.) Antagonist-binding ([6]; 0.006% FC12): 43 °C; Tm (° C.) Agonist-binding ([6]; 0.01% DDM): 27 °C; Tm (° C.) Antagonist-binding ([6]; 0.01% DDM): 25 °C; Tm (° C.) Agonist-binding ([6]; 0.1% DM): 23 °C; Tm (° C.) Antagonist-binding ([6]; 0.1% DM): 10 °C; Tm (° C.) Agonist-binding [6, 10]: †; Tm (° C.) Antagonist-binding [6, 10]: †; Tm (° C.) Agonist-binding ([6]; 0.3% NM): 22 °C; Tm (° C.) Antagonist-binding ([6]; 0.3% NM): <4 °C; Tm (° C.) Agonist-binding ([6]; 0.6% OG): <9 °C; Tm (° C.) Antagonist-binding [6, 11]: †

B1: Rant 21: A2aR with A54L, T88A, V239A+K122A (protein, UniProt P29274 1-412, looked up, variant A54L T88A V239A K122A)
Adenosine receptor A2a: MPIMGSSVYITVELAIAVLAILGNVLVCWAVWLNSNLQNVTNYFVVSLAAADILVGVLAIPFAITISTGFCAACHGCLFIACFVLVLAQSSIFSLLAIAIDRYIAIRIPLRYNGLVTGTRAAGIIAICWVLSFAIGLTPMLGWNNCGQPKEGKNHSQGCGEGQVACLFEDVVPMNYMVYFNFFACVLVPLLLMLGVYLRIFLAARRQLKQMESQPLPGERARSTLQKEVHAAKSLAIIAGLFALCWLPLHIINCFTFFCPDCSHAPLWLMYLAIVLSHTNSVVNPFIYAYRIREFRQTFRKIIRSHVLRQQEPFKAAGTSARVLAAHGSDGEQVSLRLNGHPPGVWANGSAPHPERRPNGYALGLVSGGSAQESQGNTGLPDVELLSHELKGVCPEPPGLDDPLAQDGAGVS
Q: With B1 as the molecule, how does the “Tm (° C.) − antagonist” value [5, 8] read?
A: 41 °C

Q: What about the “Tm (° C.) + antagonist” value [5, 9] of the same molecule?
A: 49 °C

Q: What about the “Tm (ZM241385 bound)” value [5] of the same molecule?
A: 49 °C

Q: And the “Tm (° C.) Antagonist-binding” value ([6]; 0.003% LDAO)?
A: 42 °C

Q: What about the “Tm (° C.) Antagonist-binding” value ([6]; 0.006% FC12) of the same molecule?
A: 49 °C

Q: And the “Tm (° C.) Antagonist-binding” value ([6]; 0.01% DDM)?
A: 39 °C

Q: What about the “Tm (° C.) Antagonist-binding” value ([6]; 0.1% DM) of the same molecule?
A: 28 °C

Q: What about the “Tm (° C.) Antagonist-binding” value [6, 10] of the same molecule?
A: 22 °C

Q: What about the “Tm (° C.) Antagonist-binding” value ([6]; 0.3% NM) of the same molecule?
A: 25 °C

Q: And the “Tm (° C.) Antagonist-binding” value [6, 11]?
A: 23 °C
